Consider 32 molecules from patent US20260234228A1 (GENOME, published 2026).

Positions count from the first letter of the chain named.

The chains are these.
T1: mouse CNTN4 overexpressed on 293F cells (mouse, UniProt Q69Z26 19-1000)
T1 construct: whole, on cells; Overexpressed on 293F cells; the construct is not described; also called Mouse CNTN4 cell; mouse antigen-overexpressing 293F cells
T1 sequence (looked up): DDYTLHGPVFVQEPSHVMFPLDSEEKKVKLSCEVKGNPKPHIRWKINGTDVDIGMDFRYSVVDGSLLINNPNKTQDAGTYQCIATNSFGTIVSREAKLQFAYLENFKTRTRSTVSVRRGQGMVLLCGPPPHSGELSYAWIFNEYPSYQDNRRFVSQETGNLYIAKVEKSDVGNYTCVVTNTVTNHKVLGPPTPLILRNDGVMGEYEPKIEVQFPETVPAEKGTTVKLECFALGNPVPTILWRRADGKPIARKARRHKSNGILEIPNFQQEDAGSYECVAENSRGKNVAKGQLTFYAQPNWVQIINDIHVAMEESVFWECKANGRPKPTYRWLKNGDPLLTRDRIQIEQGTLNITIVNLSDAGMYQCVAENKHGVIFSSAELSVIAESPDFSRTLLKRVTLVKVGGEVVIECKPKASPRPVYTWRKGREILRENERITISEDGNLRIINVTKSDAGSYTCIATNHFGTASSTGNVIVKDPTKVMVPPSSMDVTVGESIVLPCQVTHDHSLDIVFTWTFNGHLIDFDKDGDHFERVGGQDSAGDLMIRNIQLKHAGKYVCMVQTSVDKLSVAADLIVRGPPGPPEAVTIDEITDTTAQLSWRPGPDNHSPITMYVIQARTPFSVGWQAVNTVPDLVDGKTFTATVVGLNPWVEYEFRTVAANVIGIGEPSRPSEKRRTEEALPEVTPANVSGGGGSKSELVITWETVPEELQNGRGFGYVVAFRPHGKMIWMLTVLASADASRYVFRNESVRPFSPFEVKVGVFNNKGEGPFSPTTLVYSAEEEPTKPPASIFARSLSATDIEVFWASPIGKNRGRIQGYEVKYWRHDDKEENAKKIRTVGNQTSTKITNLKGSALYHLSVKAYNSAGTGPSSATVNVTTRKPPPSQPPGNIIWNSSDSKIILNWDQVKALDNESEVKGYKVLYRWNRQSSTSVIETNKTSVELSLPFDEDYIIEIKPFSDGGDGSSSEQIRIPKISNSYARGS

T2: human CNTN4 overexpressed on cells (human, UniProt Q8IWV2 19-1000)
T2 construct: whole, on cells; the construct is not described; also called human CNTN4 cell; human CNTN4-overexpressing 293F cells
T2 sequence (looked up): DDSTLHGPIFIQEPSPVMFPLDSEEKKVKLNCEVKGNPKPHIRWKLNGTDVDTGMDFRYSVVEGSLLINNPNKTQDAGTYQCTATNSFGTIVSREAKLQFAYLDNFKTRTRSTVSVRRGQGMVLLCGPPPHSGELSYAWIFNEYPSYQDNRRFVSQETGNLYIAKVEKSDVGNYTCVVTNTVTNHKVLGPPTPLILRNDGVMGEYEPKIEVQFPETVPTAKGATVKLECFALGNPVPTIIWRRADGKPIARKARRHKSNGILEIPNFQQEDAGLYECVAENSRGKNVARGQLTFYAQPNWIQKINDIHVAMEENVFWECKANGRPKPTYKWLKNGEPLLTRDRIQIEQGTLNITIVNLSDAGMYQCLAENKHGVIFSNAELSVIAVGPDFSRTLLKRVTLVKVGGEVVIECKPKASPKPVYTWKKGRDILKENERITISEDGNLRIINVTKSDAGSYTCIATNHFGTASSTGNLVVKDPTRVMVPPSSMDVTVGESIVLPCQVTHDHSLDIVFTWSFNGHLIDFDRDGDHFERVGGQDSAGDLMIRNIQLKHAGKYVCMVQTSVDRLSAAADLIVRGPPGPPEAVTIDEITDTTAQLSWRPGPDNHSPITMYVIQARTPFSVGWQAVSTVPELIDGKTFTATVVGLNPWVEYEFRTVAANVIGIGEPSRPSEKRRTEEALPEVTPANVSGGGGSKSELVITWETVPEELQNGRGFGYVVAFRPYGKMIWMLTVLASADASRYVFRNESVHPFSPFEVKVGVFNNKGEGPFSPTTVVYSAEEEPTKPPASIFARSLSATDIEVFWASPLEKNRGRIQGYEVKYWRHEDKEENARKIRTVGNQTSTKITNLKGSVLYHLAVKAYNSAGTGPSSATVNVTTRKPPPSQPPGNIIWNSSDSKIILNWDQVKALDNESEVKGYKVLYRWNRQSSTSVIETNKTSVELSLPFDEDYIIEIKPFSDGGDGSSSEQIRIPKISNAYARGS

B1: A101 scFv (scFv, V domains shown)
VH: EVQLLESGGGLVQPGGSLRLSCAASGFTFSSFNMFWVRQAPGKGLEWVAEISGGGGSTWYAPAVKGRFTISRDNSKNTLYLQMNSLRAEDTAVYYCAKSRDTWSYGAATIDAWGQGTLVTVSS
VL: ELTQDPAVSVALGQTVRITCSGSSGSYGWYQQKPGQAPVLVIYDNTNRPSGIPDRFSGSSSGNTASLTITGAQAEDEADYYCGGYDGSTDVFGGGTKLTVL
B2: A105 scFv (scFv, V domains shown)
VH: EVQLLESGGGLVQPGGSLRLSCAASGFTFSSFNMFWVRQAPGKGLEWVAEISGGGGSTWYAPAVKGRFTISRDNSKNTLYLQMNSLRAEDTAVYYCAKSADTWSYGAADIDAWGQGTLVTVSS
VL: B1 VL
B3: A112 scFv (scFv, V domains shown)
VH: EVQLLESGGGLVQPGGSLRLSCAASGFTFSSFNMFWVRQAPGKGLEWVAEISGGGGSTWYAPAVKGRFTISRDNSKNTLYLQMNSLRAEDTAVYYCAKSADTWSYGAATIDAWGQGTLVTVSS
VL: B1 VL with S23R
B4: A110 scFv (scFv, V domains shown)
VH: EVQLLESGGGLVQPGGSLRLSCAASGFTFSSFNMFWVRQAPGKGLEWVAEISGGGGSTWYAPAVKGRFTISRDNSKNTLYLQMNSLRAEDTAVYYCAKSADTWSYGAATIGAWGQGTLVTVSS
VL: B1 VL
B5: A107 scFv (scFv, V domains shown)
VH: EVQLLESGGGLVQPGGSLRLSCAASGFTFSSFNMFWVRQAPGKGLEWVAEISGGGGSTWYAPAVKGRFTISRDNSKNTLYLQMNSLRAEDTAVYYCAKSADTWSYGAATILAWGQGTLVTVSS
VL: B1 VL
B6: A102 scFv (scFv, V domains shown)
VH: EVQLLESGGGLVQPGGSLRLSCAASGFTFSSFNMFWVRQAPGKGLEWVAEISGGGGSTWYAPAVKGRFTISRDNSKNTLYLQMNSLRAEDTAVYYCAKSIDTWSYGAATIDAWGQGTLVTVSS
VL: B1 VL
B7: A111 scFv (scFv, V domains shown)
VH: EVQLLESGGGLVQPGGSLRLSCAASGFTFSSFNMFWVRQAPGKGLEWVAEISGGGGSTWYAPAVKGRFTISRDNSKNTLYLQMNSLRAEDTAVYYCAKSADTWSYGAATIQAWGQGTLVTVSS
VL: B1 VL
B8: A114 scFv (scFv, V domains shown)
VH: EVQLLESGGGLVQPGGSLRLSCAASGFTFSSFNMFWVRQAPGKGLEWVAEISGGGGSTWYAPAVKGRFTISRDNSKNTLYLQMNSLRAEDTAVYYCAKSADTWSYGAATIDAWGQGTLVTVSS
VL: B1 VL with D86W
B9: A106 scFv (scFv, V domains shown)
VH: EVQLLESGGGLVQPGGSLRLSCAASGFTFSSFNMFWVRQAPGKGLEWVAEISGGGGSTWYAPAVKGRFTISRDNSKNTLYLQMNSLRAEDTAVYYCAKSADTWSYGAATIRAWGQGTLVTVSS
VL: B1 VL
B10: A108 scFv (scFv, V domains shown)
VH: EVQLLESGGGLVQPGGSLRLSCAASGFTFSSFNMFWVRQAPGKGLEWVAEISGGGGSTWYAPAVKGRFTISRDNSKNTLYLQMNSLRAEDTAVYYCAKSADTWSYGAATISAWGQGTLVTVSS
VL: B1 VL
B11: A103 scFv (scFv, V domains shown)
VH: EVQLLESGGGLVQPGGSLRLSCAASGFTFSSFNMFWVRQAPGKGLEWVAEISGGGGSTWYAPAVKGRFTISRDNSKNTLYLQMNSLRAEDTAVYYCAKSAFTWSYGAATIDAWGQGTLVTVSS
VL: B1 VL
B12: A113 scFv (scFv, V domains shown)
VH: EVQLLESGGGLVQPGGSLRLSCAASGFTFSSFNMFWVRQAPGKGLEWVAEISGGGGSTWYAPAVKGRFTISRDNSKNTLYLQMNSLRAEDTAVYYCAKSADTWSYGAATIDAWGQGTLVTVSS
VL: B1 VL with D86R
B13: A109 scFv (scFv, V domains shown)
VH: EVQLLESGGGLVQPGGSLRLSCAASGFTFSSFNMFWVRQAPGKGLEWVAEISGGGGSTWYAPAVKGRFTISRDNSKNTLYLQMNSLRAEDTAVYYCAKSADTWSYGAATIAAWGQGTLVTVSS
VL: B1 VL
B14: A214 scFv (scFv, V domains shown)
VH: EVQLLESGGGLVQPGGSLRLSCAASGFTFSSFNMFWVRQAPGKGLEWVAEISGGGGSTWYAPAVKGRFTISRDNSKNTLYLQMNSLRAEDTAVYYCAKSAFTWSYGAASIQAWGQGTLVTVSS
VL: B1 VL with D86W
B15: A218 scFv (scFv, V domains shown)
VH: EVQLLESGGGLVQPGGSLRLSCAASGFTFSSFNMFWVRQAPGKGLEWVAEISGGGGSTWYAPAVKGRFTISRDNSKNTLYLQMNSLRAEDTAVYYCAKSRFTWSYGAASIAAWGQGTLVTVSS
VL: B1 VL with S23R, D86W
B16: A210 scFv (scFv, V domains shown)
VH: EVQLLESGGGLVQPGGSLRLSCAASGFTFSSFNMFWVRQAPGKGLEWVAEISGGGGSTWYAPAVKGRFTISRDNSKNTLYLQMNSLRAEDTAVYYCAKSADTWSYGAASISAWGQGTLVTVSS
VL: B1 VL with S23R, D86W
B17: A217 scFv (scFv, V domains shown)
VH: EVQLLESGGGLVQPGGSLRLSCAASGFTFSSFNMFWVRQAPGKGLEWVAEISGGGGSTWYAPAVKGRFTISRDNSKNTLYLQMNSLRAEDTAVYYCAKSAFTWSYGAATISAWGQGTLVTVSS
VL: B1 VL with D86W
B18: A215 scFv (scFv, V domains shown)
VH: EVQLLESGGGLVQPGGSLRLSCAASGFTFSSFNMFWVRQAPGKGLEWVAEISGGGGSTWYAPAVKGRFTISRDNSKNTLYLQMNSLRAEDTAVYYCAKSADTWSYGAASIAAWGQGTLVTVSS
VL: B1 VL with D86W
B19: A213 scFv (scFv, V domains shown)
VH: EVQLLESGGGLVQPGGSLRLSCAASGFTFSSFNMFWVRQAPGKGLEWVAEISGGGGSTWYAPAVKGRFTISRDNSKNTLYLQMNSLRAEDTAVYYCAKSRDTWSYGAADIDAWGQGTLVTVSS
VL: B1 VL with D86W
B20: A202 scFv (scFv, V domains shown)
VH: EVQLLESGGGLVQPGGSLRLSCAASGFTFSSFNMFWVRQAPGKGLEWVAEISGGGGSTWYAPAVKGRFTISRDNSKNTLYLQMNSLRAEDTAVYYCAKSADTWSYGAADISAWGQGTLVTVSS
VL: B1 VL with S23R, D86W
B21: A205 scFv (scFv, V domains shown)
VH: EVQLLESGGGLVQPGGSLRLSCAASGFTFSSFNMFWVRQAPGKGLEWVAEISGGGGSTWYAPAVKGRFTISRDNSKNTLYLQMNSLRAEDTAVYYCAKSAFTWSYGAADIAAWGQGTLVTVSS
VL: B1 VL with D86W
B22: A216 scFv (scFv, V domains shown)
VH: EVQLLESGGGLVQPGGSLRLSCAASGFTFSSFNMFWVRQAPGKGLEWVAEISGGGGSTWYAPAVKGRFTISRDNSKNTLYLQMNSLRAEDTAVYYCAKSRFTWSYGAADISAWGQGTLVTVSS
VL: B1 VL with S23R, D86W
B23: A208 scFv (scFv, V domains shown)
VH: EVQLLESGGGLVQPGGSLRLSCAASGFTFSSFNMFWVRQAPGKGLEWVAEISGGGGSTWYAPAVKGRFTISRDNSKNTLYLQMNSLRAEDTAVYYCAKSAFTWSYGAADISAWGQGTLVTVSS
VL: B1 VL with D86W
B24: A211 scFv (scFv, V domains shown)
VH: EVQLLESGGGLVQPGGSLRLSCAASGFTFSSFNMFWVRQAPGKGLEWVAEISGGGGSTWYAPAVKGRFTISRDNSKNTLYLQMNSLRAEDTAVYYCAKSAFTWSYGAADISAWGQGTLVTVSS
VL: B1 VL with S23R, D86W
B25: A209 scFv (scFv, V domains shown)
VH: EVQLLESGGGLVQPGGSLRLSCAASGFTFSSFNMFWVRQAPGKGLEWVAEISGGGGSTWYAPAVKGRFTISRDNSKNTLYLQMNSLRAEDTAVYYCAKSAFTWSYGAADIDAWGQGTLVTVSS
VL: B1 VL with S23R, D86W
B26: A212 scFv (scFv, V domains shown)
VH: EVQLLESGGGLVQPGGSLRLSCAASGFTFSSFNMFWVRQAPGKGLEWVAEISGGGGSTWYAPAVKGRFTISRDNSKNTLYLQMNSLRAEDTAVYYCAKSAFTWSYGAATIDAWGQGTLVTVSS
VL: B1 VL with S23R, D86W
B27: A203 scFv (scFv, V domains shown)
VH: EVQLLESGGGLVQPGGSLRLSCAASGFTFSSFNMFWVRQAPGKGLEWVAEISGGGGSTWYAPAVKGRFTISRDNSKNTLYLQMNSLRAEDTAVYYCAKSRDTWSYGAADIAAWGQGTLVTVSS
VL: B1 VL with S23R, D86W
B28: A201 scFv (scFv, V domains shown)
VH: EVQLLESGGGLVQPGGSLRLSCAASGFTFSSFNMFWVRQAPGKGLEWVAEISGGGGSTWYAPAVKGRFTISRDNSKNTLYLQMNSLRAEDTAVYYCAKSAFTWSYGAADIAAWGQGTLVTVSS
VL: B1 VL with S23R, D86W
B29: A219 scFv (scFv, V domains shown)
VH: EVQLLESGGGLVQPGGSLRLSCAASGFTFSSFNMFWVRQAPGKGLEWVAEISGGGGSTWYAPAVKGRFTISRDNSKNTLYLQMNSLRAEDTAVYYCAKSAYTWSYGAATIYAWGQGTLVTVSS
VL: B1 VL with D86W
B30: A206 scFv (scFv, V domains shown)
VH: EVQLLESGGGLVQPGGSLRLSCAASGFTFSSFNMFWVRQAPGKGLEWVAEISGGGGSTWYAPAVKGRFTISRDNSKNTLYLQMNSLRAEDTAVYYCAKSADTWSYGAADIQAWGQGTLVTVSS
VL: B1 VL with S23R, D86W
B31: A207 scFv (scFv, V domains shown)
VH: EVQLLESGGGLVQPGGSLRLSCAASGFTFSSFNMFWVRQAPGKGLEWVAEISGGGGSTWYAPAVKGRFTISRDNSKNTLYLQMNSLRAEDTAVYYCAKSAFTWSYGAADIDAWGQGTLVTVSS
VL: B1 VL with D86W
B32: A204 scFv (scFv, V domains shown)
VH: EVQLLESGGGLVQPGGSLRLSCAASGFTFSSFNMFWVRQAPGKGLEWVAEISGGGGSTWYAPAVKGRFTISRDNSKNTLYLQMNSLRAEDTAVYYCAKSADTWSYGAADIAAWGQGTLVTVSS
VL: B1 VL with S23R, D86W

In one test the target is T1, mouse CNTN4 overexpressed on 293F cells. The experiment in a line: FACS, scFv periplasm on mouse CNTN4-overexpressing 293F cells, PE anti-His detection. (In flow cytometry, cells or beads pass a laser one at a time.)
The term EC50 denotes the concentration needed to bring the measured effect to its halfway point. Lower therefore signals a more potent agent. As to B1, it took 33.2 nM to reach a half-maximal effect (EC50) and the “Top MFI” value turned out to be 2070 MFI.
The corresponding values for B2 are 13.9 nM and 2460 MFI.
The like results for B3 were, in that order, 32.5 nM and 1860 MFI.
The corresponding values for B4 are 20.1 nM and 2150 MFI.
Regarding B5, the EC50 was 13.6 nM and the “Top MFI” value was determined as 4110 MFI.
The like results for B6 were, in that order, 17.3 nM and 2110 MFI.
Regarding B7, the response was half-maximal at 10.4 nM (EC50) and the “Top MFI” value came to 4190 MFI.
The corresponding values for B8 are 7.6 nM and 2260 MFI.
The corresponding values for B9 are 72.6 nM and 2740 MFI.
The like results for B10 were, in that order, 20.2 nM and 2840 MFI.
As to B11, the EC50 was 12 nM and the “Top MFI” value stood at 2740 MFI.
The like results for B12 were, in that order, 45.8 nM and 1100 MFI.
The like results for B13 were, in that order, 8.3 nM and 2830 MFI.

In a further test the target is T2, human CNTN4 overexpressed on cells. The experiment in a line: FACS, scFv periplasm on human CNTN4-overexpressing 293F cells, PE anti-His detection.
Turning to B14, the EC50 amounted to 3.5 nM and the “Top MFI” value was found to be 1460 MFI.
The like results for B15 were, in that order, 3.7 nM and 1290 MFI.
The corresponding values for B16 are 4.4 nM and 1380 MFI.
Consider B17, for which the EC50 came to 2.8 nM and the “Top MFI” value was found to be 1740 MFI.
The corresponding values for B18 are 3.6 nM and 1470 MFI.
The corresponding values for B19 are 3.2 nM and 1700 MFI.
B20: the EC50 was found to be 3 nM and the “Top MFI” value was 1750 MFI.
Consider B21, for which it took 2 nM to reach a half-maximal effect (EC50) and the “Top MFI” value turned out to be 1300 MFI.
As for B22, the EC50 came to 2.9 nM and the “Top MFI” value worked out at 1630 MFI.
The corresponding values for B23 are 3.7 nM and 1320 MFI.
The like results for B24 were, in that order, 3.1 nM and 1370 MFI.
The corresponding values for B25 are 2.3 nM and 1600 MFI.
In the case of B26, the EC50 worked out at 2.7 nM and the “Top MFI” value was 1630 MFI.
The corresponding values for B27 are 3.3 nM and 1240 MFI.
On to B28, for which the EC50 amounted to 3.2 nM and the “Top MFI” value came to 1380 MFI.
The like results for B29 were, in that order, 3.9 nM and 1270 MFI.
The corresponding values for B30 are 4.8 nM and 1370 MFI.
The like results for B31 were, in that order, 3.2 nM and 1620 MFI.
As for B32, the response was half-maximal at 1.7 nM (EC50) and the “Top MFI” value worked out at 1700 MFI.
